Results on two molecules are retold here after US20240123058A1 (XIAMEN UNIVERSITY, published 2024).

Assay [1] has as its target gB protein on EBV virions used in the neutralization models (Epstein-Barr virus). As to the kind of experiment: cell-based or functional assay.
The target in assay [2] is T1, EBV gB protein ectodomain (24-683 aa) of the substituted M81 strain gB protein, C-terminal 6×His tag (EBV M81 strain, UniProt P0C762 24-683).
T1 construct: Expressed in 293F cells; also called EBV gB ectodomain
T1 chain: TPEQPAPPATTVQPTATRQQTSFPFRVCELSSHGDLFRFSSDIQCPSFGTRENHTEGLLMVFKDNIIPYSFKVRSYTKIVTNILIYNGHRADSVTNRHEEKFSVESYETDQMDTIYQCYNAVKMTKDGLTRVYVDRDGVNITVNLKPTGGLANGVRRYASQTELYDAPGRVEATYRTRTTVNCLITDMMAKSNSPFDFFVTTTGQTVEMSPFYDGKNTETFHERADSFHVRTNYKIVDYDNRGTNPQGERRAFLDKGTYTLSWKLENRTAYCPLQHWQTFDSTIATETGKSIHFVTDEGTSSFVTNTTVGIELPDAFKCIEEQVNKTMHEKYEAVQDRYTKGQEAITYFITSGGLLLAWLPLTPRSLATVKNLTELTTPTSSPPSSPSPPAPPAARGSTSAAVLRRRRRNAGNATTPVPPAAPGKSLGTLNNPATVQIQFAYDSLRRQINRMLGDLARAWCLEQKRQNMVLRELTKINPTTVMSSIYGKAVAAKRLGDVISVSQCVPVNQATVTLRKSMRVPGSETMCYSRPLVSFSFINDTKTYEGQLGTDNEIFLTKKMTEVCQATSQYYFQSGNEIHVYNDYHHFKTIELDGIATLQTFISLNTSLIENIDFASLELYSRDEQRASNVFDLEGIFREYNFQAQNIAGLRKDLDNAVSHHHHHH
As to the kind of experiment: SPR (Biacore 8K): antibody captured on a Protein A chip, EBV-gB as analyte at 1.5625-200 nM. (In SPR one partner is held on a chip, and binding of the other changes the refractive index at the surface.)

Assay [3] deals with T1, EBV gB protein ectodomain (24-683 aa) …. The experiment in a line: indirect ELISA, coated gB ectodomain. On the technique in general: ELISA stands for enzyme-linked immunosorbent assay.
Assay [4] deals with T2, wild-type full-length EBV gB protein expressed on cells (EBV M81 strain, UniProt P0C762 22-857).
T2 construct: also called gB protein expressed by cells; natural gB protein
T2 chain: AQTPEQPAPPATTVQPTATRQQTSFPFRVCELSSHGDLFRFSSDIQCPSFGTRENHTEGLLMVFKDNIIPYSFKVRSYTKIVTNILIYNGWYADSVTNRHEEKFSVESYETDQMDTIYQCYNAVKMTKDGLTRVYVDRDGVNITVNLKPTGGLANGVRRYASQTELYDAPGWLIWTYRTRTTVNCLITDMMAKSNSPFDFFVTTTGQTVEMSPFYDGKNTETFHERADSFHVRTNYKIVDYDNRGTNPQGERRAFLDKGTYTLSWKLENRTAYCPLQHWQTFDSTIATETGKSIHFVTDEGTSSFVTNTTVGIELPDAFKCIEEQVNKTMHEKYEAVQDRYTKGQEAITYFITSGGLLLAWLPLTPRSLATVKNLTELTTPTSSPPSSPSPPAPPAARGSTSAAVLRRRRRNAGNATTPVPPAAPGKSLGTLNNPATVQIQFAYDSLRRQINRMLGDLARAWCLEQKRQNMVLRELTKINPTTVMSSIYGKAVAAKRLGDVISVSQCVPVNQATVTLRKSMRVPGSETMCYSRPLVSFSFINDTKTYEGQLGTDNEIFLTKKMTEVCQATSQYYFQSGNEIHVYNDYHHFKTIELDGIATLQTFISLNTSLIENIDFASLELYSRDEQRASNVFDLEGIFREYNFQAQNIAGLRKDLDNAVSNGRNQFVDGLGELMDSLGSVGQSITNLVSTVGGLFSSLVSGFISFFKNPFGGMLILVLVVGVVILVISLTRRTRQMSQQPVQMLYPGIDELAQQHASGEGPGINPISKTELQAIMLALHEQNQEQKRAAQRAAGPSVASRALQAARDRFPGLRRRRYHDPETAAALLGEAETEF
As to the kind of experiment: immunofluorescence on MDCK cells transfected with full-length wild-type gB.

In assay [5] the target is T1, EBV gB protein ectodomain (24-683 aa) …. The experiment in a line: SPR, Biacore 8K, antibody captured on Protein A chip, gB as analyte.
Assay [6] concerns the target T3, HBc149 protein chimerized with gB-331˜367aa epitope.
T3 construct: also called Recombination protein gB aa331-367 + HBc149/mut; HBc149 chimeric protein
T3 chain: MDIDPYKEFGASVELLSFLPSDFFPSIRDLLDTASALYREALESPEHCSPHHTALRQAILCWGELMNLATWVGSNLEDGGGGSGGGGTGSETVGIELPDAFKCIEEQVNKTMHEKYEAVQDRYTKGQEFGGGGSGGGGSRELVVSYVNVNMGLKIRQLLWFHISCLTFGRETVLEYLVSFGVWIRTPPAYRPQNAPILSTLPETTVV
As to the kind of experiment: indirect ELISA on the coated HBc149 protein chimerized with gB-331~367aa, antibody titrated.

For the next assay, the target named is T4, gB-528~616aa.
T4 construct: as f3
T4 HBc149/mut carrier with inserted gB segment: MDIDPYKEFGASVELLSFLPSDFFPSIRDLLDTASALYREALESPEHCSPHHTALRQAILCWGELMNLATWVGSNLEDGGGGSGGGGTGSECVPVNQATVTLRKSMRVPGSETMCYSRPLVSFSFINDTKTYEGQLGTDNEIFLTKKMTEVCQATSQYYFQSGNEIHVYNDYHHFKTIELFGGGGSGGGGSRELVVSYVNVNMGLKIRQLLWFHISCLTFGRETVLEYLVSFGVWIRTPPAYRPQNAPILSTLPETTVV
As to the kind of experiment: Western blot of gB segments displayed on HBc149, reduced and heated.

The target of assay [7] is T1, EBV gB protein ectodomain (24-683 aa) …. As to the kind of experiment: indirect ELISA on coated wild-type gB ectodomain, 3A5 titrated [right panel].
A further assay has as its target T5, gB-295~390aa.
T5 construct: as f3
T5 HBc149/mut carrier with inserted gB segment: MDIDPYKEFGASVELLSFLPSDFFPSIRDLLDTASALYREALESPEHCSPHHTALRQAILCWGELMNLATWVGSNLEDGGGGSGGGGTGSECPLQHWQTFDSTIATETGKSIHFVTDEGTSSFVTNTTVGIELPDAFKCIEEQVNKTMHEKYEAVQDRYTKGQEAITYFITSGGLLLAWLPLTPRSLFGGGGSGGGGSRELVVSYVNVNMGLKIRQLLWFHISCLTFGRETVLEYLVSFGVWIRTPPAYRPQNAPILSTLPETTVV
The experiment in a line: Western blot of gB segments displayed on HBc149, reduced and heated.

B1: rabbit monoclonal antibody 3A3 (antibody, V domains shown)
VH: QSVKESGGRLVTPGTPLTLTCTVSGFSLSSYAMSWVRQAPGKGLEYIGVIYASGSTYYASWAKGRFTISRTATTVDLKITSPTTEDTATYFCGRGVSTNMWGPGTLVTVSS
VL: DLVMTQTPSSVSAAVGGTVTIKCQASQSLGGGLAWYQQKPGQRPKLLIYSASTLESGVPSRFRGSGSGTEFTLTISDLECADAATYYCQSAYGPTSNGLFNAFGGGTKVVIK
notes: Recombinant rabbit monoclonal antibody expressed in 293F cells; also called 3A3 antibody
On to B1, for which, in assay [1], the “IC50 on the B cell infection model” value was 2.97 mg/L and the “IC50 on the epithelial cell infection model” value stood at 0.07 mg/L. Moreover, in assay [2], the koff was found to be 0.000162 s⁻¹ and the kon was found to be 188000 M⁻¹ s⁻¹. In assay [3], this molecule showed a concentration giving a half-maximal response (EC50) of 0.007 mg/L. Further, the binding result in [4] is on record as “binds”. The molecule further gave a Kd in assay [5] of 0.863 nM. Moreover, the binding result in assay [6] was “binds”. In addition, the binding result with gB-528~616aa is “no binding (tested: 1 µg/mL)”.

B2: rabbit monoclonal antibody 3A5 (antibody, V domains shown)
VH: QSVKESGGRLVTPGTPLTLTCTVSGFSLSSYEMGWVRQAPGEGLEWIGTISTGGSSYYASWAKGRFTISRTSTTVDLKMTSLTTADTATYFCARGYGGYGIGAGYFNIWGPGTLVTVSS
VL: ALVMTQTPSSVSEPVGGTVTIKCQASQSISSYLAWYQRKPGQRPKLLIYGTSTLASGVPSRFIGSGSGTDYTLTISDLECDDAATYYCQQGFSTSNVYNSFGGGTKVDIK
notes: Recombinant rabbit monoclonal antibody expressed in 293F cells; also called 3A5 antibody
As for B2, in assay [1], the “IC50 on the B cell infection model” value is 4.9 mg/L and the “IC50 on the epithelial cell infection model” value was determined as 0.31 mg/L. Moreover, in [2], the off-rate constant (koff) was 0.000266 s⁻¹ and the kon was 648000 M⁻¹ s⁻¹. Also, in assay [7], the “EC50 (read off the curve)” value was roughly 0.005 mg/L. Also, a half-maximal response in assay [3] (EC50) required 0.0052 mg/L. Also, the binding result in assay [4] is “binds”. The molecule also showed a Kd in assay [5] of 0.411 nM. Moreover, in the assay with gB-295~390aa, the binding result was “no binding (tested: 1 µg/mL)”.

Usually koff stands for a measure of how fast the partners let go of each other. A higher koff goes with fast dissociation. The term kon denotes a measure of how fast the partners come together. The low end stands for slow association, the high end for fast association. What is called EC50 is the concentration at which the effect is half-maximal. The term Kd denotes the concentration at which binding is half-saturated. High values mean weaker binding, low ones tighter binding. The EC50 (read off the curve) is the concentration that produces a half-maximal response. A higher EC50 (read off the curve) goes with a need for much substance.
